{"source": "patent US20230201151A1", "about": "“FORMULATIONS AND METHODS FOR TREATING ACUTE RESPIRATORY DISTRESS SYNDROME, ASTHMA, OR ALLERGIC RHINITIS” (UNIVERSITY OF FLORIDA RESEARCH FOUNDATION, INC., priority 2020, published 2023)", "key": {"ENaC": {"target": "T1, ENaC (Homo sapiens, UniProt P37088+P51168+P51170)", "T1 construct": "primary cultures of human bronchial epithelial cells (HBEC) harvested from normal human lungs; endogenous in cells; host or cells: primary human bronchial epithelial cells (HBEC) from donor lungs, differentiated at an air-liquid interface", "T1 sequence (P37088 1-669)": "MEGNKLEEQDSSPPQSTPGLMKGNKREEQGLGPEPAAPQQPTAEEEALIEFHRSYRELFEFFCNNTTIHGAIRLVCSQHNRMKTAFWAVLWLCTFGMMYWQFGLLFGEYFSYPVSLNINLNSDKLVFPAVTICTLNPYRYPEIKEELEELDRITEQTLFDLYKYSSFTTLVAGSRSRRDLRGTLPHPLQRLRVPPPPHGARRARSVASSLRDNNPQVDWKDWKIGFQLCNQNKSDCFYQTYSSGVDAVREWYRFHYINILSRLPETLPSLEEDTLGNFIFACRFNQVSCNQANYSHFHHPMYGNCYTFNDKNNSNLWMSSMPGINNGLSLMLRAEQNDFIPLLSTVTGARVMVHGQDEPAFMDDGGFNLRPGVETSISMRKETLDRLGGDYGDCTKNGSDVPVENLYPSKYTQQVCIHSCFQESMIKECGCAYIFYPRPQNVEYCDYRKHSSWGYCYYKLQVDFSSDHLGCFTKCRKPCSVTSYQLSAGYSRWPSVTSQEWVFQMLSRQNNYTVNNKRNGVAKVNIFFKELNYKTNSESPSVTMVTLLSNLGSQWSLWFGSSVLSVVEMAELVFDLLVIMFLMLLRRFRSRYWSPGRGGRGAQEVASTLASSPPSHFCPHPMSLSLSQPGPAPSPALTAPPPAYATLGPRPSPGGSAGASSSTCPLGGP", "T1 sequence (P51168 1-640)": "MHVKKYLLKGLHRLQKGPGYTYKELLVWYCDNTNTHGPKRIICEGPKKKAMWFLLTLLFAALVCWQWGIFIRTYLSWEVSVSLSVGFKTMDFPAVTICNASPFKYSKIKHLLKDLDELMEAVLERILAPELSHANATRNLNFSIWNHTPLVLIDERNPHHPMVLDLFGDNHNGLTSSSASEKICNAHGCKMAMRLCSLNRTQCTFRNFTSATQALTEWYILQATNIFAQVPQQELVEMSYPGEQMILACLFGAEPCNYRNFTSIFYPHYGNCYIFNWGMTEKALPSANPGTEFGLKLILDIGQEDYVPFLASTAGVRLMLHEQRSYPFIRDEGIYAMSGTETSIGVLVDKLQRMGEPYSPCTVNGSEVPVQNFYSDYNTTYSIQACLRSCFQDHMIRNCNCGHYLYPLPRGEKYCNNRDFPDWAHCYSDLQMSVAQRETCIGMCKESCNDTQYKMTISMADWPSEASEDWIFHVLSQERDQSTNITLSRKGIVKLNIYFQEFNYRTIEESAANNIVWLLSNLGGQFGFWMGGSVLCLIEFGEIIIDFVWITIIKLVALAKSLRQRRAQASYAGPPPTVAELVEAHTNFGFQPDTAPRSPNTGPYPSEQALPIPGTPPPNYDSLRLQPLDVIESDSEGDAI", "T1 sequence (P51170 1-649)": "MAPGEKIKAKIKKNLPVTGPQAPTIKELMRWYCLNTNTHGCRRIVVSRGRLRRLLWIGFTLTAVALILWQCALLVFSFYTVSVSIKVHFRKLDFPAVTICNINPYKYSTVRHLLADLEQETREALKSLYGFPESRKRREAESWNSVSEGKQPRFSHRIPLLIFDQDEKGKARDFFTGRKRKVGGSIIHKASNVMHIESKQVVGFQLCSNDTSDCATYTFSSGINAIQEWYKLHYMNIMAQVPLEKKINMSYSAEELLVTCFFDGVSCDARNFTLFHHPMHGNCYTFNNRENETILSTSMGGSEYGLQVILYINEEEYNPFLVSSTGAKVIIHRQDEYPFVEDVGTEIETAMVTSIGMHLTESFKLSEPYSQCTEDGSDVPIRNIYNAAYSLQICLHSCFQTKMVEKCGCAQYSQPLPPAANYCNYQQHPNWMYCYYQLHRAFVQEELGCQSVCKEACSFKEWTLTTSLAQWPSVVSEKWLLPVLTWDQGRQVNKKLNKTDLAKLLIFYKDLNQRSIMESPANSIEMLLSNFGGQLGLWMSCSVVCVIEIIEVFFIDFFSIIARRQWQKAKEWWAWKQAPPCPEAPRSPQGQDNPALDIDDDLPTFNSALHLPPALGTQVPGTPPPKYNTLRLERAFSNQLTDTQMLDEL", "assay": "ENaC current (benzamil-sensitive current) in IL-13-treated differentiated HBEC, Examples 1-2", "assay_type": "cell-based", "procedure": "IL-13: abcam (#ab9577); Stock solution: 10 μg/mL water; 20 ng=2 μL Stock/mL media Media change with IL-13 every other day\n(§1) Experimental design: IL-13 treatment with 20 ng/mL media for 4 and 14 days. Ussing chamber experiment in Basic Ringer (5 mM glucose in basolateral side).\nIn some embodiments, experimental studies called for determination of: • Baseline values (30 min) • Presence or absence of 6 μM Benzamil (on apical side) (15 min) • Presence or absence of 20 μM CFTRinh 172 (on apical and basolateral sides) (15 min) • Presence or absence 10 μM CaCCinh AO1 (on apical and basolateral sides) (10 min) • Presence or absence of 20 μM Bumetanide (on basolateral side) (15 min)\nFor Day 0 analysis: • IL-13 treatment: 0 ng/mL media • Ussing chamber experiment in basic ringer or amino acid (AA) formulations. • In addition, S side added 5 mM Glucose\nTreatment for 4 days or 14 days analysis: • IL-13 treatment: 20 ng/mL media • Ussing chamber experiment in basic ringer or AA formulations. • In addition, S side added 5 mM Glucose\nIn some embodiments, the day 4 and day 14 experimental studies called for determination of: • Baseline values (30 min) • Presence or absence of 6 μM Benzamil (on mucosal side) (15 min) • Presence or absence of 20 μM Bumetanide (on serosal side) (15 min) • Presence or absence of 20 μM CFTRinh 172 (on mucosal and serosal sides) (15 min) […]"}, "HBEC": {"test_system": "HBEC", "assay": "Barrier function in IL-13-treated differentiated HBEC, Examples 1-2", "assay_type": "cell-based, human", "conditions": "IL-13 20 ng/mL", "procedure": "as §1\nTo investigate the importance of ENaC during inflammation and explore how its activity is modulated during the evolution of ARDS, the present inventors used primary cultures of human bronchial epithelial cells (HBEC) harvested from normal human lungs, which had been differentiated in vitro in an air-media interphase (air on the apical side and media on the basolateral side) for 30 days. Differentiated HBEC were used for electrophysiology experiments to evaluate the effect of IL-13 on these cells. […] Similarly, IL-13 (20 ng/mL) caused a maximum reduction in barrier function on day 8 of exposure."}}}
{"substance": "IL-13: Th2 cytokine (Abcam) added to HBEC culture medium", "values": [{"measurement": "ENaC current versus IL-13 concentration", "setting": "ENaC; FIG. 2", "result": "dose-dependent reduction"}, {"measurement": "day of maximum reduction in ENaC current", "setting": "ENaC; IL-13 exposure (FIG. 3)", "result": 8, "unit": "days"}, {"measurement": "day of maximum reduction in barrier function", "setting": "HBEC", "result": 8, "unit": "days"}]}
